Paper PMC8547449, “Streptococcus pyogenes Forms Serotype- and Local Environment-Dependent Interspecies Protein Complexes” (mSystems, 2021)

Target: T1, C4b-binding protein (human, UniProt P04003 49-597; P20851 18-252)
T1 construct: In the AP-MS experiments it was followed by its alpha chain (C4BPA); also called C4BP; C4BPα; source: endogenous, pooled human plasma (AP-MS); bought: Complement Technology, purified human complement C4BP, catalog A109 (SPR, TX-MS, HDX-MS); copies: 7 +
T1 sequence (looked up) 1: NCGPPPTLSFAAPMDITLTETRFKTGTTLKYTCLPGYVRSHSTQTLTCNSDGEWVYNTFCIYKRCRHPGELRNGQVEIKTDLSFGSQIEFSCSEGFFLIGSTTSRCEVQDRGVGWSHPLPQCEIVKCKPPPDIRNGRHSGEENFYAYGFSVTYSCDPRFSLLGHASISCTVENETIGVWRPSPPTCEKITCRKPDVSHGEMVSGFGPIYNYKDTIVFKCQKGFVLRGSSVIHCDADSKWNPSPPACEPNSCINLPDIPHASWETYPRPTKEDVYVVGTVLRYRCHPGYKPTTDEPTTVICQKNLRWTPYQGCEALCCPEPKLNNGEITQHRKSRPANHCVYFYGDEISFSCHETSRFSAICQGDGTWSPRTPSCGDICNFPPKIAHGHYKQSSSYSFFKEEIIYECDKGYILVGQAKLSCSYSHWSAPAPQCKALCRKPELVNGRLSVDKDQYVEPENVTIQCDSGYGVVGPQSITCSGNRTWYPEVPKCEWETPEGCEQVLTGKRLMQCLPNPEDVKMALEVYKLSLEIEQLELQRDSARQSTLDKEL
T1 sequence (looked up) 2: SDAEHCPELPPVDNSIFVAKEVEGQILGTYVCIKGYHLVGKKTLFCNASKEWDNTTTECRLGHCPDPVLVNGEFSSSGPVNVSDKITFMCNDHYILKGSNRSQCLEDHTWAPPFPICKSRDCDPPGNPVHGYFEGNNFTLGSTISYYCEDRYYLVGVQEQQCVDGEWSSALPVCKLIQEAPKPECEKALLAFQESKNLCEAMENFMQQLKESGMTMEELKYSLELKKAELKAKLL
Experiment: cross-linking; TX-MS: 10 μg C4BP or 10 μg IgA Fc with 10 μg untagged M28 in 100 μl PBS, 37°C, DSS-H12/D12 at 0 to 2,000 μM for 60 min; cross-linked peptides by DDA-MS
Conditions: both partners purified

B1: M28 protein, recombinant, affinity tag removed by TEV protease (natural protein)
chain: AESPKSTETSANGADKLADAYNTLLTEHEKLRDEYYTLIDAKEEEPRYKALRGENQDLREKEGKYQDKIKKLEEKEKNLEKKSEDVERHYLKKLDQEHKEQEERQKNLEELERQSQREIDKRYQEQLQKQQQLETEKQISEASRKSLSRDLEASRAAKKDLEAEHQKLKEEKQISDASRQGLSRDLEASRAAKKDLEAEHQKLKEEKQISDASRQGLSRDLEASREAKKKVEADLAEANSKLQALEKLNKELEEGKKLSEKEKAELQARLEAEAKALKEQLAKQAEELAKLKGNQTPNAKVAPQANRSRSAMTQQKR
notes: M protein of S. pyogenes serotype M28, mature, without the signal peptide and the LPXTG cell wall-anchoring motif, aa 42 to 358; Used for SPR, TX-MS and HDX-MS; also called untagged M28; TEV-cleaved M28; source: E. coli Tuner(DE3), purified (HisTrap, TEV digestion, HisTrap, Superdex 200)
binding result: binds
